The nature of the data set: soluble fraction after stress (log2 fold change); higher = more stays soluble; pooled small domains, quantitative proteomics. To be noted: stress: 75 degC.
“HMRQIRELFRLKFGSLLPTSDRQIAAQLGVARSTVAEYLERARAAGLSWPLPLDLSDADLEERLFA”: the “soluble fraction (log2)” value was -3.08. Then “HMRQMSEELQSAKEALEDRRTQEKAVLLLMEHRNISNDEAHRLLRKLAMDQGKRLPEVARALVSMAGVL”, with -0.319; and “HMRQSKMREAILAAVSAQKLEISDLHVWRIGEQRYAAIIGLATTQAESVSALRDSLAQMDKLVHLTIDQ”, with -2.21. Turning to “HMRQTGWVTADSLNVRARPSLQAERVEKVTYGQQVQIMFKQGQWYQIATENGKIGWVSSEYIAAVSP”, the “soluble fraction (log2)” value is -2.4. The figure for “HMRRELDSEHKRQEILFAAKRLLLAEGYDATSMSRLAKEAGVAPNTLYWYFKDKDELLIAILDELVAE” is -2.74; for “HMRRGKLGMASRLEQIPGIGPKKRKALLKAFGNSIDAIKSAPVEDLMKVKGINLVLAESIKEL” it is -0.11; for “HMRRMTEEQSKLFQGLVSIVQTTLVADMEKGAVTPLLIAEKVDFVADNLYPGKDIDRKEAVAELIRRFSLW” it is -1.67.

For the sequence “HMRRSKQERQQAIKTLISNEQIQRQEDLVRKLNEAGWEVTQATISRDITEMQLVKVPLPTGGFAYAVM”, the “soluble fraction (log2)” value is -0.0517.

For the sequence “HMRRSKVMLESILDEIPQMGQARRAALLEQFGSVAALRKASLAEIAMTPGIGEKIAVIIFEYLQKSSH”, the “soluble fraction (log2)” value was -1.69. With “HMRRTEKEIEQDVMRAIATIISEKGISSVTIKEVSNLSKTDVIVLERRFKNDEGLIKAYTSQ”, the “soluble fraction (log2)” value was -1. The figure for “HMRSFADEGTVEEWIKQAIRENEAAVADYRKGKETAVKFLMGQVMRLSKGEANPADLEDKIKAKLD” is 0.0142; for “HMRSFGTVAQARGRWKAFYVGPDKRRHTPGVTFSNPIRAQGWLAQELTLIELGQWTPPAQRREKAEVAS” it is -2.26; for “HMRSIVETLTDRELEIFQLIGNGFSTGEIARRLNLSPHTIETHRKNIKDKLGLSSGSELNKQAIQWVLSS” it is 0.244.

With “HMRSKTSYAVWTPIQIDAGSQMQALQSKGFNTVLMEGGISVGIRSDKAQAQALLNRLQGAGFTGQLREVN”, the “soluble fraction (log2)” value was -0.173. Then “HMRSLATFEEEKIALRFWNYLQSEGIKSTLEEEGPRDWVIWVIDEEKIPSATQSLEKFNLNPDDPAFSN”, with -0.784; and “HMRSLVDRSVQAVTDHIRENALRVGDSLPGEAYFATSLGVSRAVMREAFGALAALRVIDVGNGRKPRVGAI”, with -0.687; and “HMRSMEKRLTAKVKRVQEGVQAKSQAGEQPFEVVKLMQRFPKLMQFGKHAEAETVLDKALELLGEE”, with -0.0318. As for “HMRSQLALVVRTGESQRLDNFLVNNLAWKSRNRLQGLIREGLVTVNGEKTKASRRVHLDDLVEIHL”, the “soluble fraction (log2)” value is -1.31. On to “HMRSTIYEFTVPPGQLESIRLDVYITSFVENATRSKVQEAIKQGYVWVNGKHEKASYTMLPGDKIYIELPI”, for which the “soluble fraction (log2)” value was -2.65.

Consider “HMRSVEVAAEPGMVLEDRQTGFVGAVVAVEKSGGTHLVVLEDRHGLRRGFPLGPGFWLEGRPVVLAPPP”, for which the “soluble fraction (log2)” value is -1.01.

Turning to “HMRTANREKRIEASVKMMKAGYPVGYIIARVFMYEGWEEDYRQLLIYLSEKIPKDVSNPITFEVIS”, the “soluble fraction (log2)” value was -0.622. Take “HMRTEGNLGAKVRVLRRSQGMTQAELARRLGISPSYLNLIEHNRRSFTADLLVKLAKILPVNLKT”: the “soluble fraction (log2)” value is -2.5. Then “HMRTITYSITPAHAGMSVERYLKQQHGYSTRTLVKLKHYPQGLQLNGQHARTVDLLQAGDTLAVTFLD”, with -2.42; and “HMRTLSAGVAGRLRADILNGLLEPGRRLGMAELTERYGAGMSPVREALSRLVGEGLVQSEGQRGFRVA”, with -0.446.

As for “HMRTMFGQRLRLARKRAGLSMQALADRVTPSVSAQAISKYEADQMMPSSSVLVGLGKALGVSLDFLVGGQ”, the “soluble fraction (log2)” value was -1.41. In the case of “HMRTNVDISPKILEWVLSQVRNRTTNDVIETIQIWIKGEKPPTFNQVEKISKATGVPLGYFFLKTPPVED”, the “soluble fraction (log2)” value is -1.34. The figure for “HMRTPLTGREEQVATLIGRGMTNSEIAESLSVDESTVKTHIGSILRKVHLRDRLQVALWFHGLPIE” is -0.67; for “HMRTTYKTRLETLLAGPMSAGDRRFASSLLDFYNRKNRLTPGRARFVAQLEDRYSAEALAARQG” it is -1.19. The figure for “HMRTVEQFQIRKIYAISNALGISDSRADEDELHVLVSGLTGKDSIKELTYREASVVIERLEELQ” is -2.22; for “HMRVDDITDTILNVLKEQGGFISVTDKSSPETINKLFGVSKKTYKKAIGAIYRKKLIIIEDDGIRLNS” it is -2.4.

Regarding “HMRVDRSALDSIPGVGPGRKRTLLHHFGSARAVEASGLADLESIRGISKALARKIYDFFHPE”, the “soluble fraction (log2)” value was -1.55.

Consider “HMRVELVVVPELRQQLLPEARELANSAGLQLRVRGQSPADETRTIVVTQSPAAGTRVAARSIVLVE”, for which the “soluble fraction (log2)” value was -1.12. The figure for “HMRVPTVIGMDEGTAKATLANASLKSNIVYESDETKENGKVLSQGIEQNKEVKAGTTVEIKVNKIE” is 0.116; for “HMRVTEVSYDKFLDMLSGGQVTVVELQENERELYFKAADENGAERIYSTGVFPDADLQKRLSESGVTF” it is -0.14; for “HMRYLHTMIRVSDLEESLNFFKLLDIHEVSRKENEQARFTLVFLSATGDEKLVENAKSPLIELTFN” it is -0.0509. The figure for “HMRYLMPDLVNRRYEPVRSLLEARGIRFGNVIFEPYEGLPPGIVLRQDPPAGHPLPRRRTVSLVVSGPGGR” is -2.56; for “HMRYQIAEARKLRDITQAELAEKMGTTQQTIQRYETNQVNIRMDKMIEMSEILNVSLAYLLGMSSSPEL” it is -1.78.

For the sequence “HMRYVVQVATFSSKNNAIRAADDLAGFVVVSNGYYRVRTGPYADRGEANAALAKARKAGYTDAFVDTS”, the “soluble fraction (log2)” value was -2.19. The figure for “HMSAAYVYVTGTRVNQRDGPSTFDRVMGVLVEGTRVQLLRDQGQWAQIRSDLGTGWLSSGFLSRNG” is -1.88; for “HMSADKAEAAEASLKSFNLRLQAAAMEAGKTFAPVTADQYAEYKAAWGTYIRKGIEGLSESEKKTINVG” it is -0.243; for “HMSAETREELVGREGVSLTDLRPSGFALFGQEKIDVVSESEFIEEGTSVRIVSVEGSRHIVRAKR” it is -0.0724.

As to “HMSAISSARKEKIIEYLTDHGSARSSEIAEYVDLRPSRVRDYLGELVREDIVVAEGANRNRTYRLK”, the “soluble fraction (log2)” value is -0.0533.

For “HMSAPGYRAVYPGMLESERQTAYELLSSSGFDVKINTSSGELEVTTDRYHEARMVMASQNIPK”, the “soluble fraction (log2)” value is -0.137. On to “HMSAPVFRITPAGVVVNGLKRSDILTLTRIDGAMNTLPHNAGEVLVSTEGLAKGVYVITAGGKSLKFLV”, for which the “soluble fraction (log2)” value is -1.85. Turning to “HMSAQPMEYSRFYSDVTQGRVAEVEIEGREINGRLSTGERFKTFSPETDNKALIGHLLDNGVVIEGKPP”, the “soluble fraction (log2)” value was determined as 0.255. The figure for “HMSASEKLFEARKNLNIVNVLGKNPVDRYDIVKILKHGDHYHIYDSKGNEGITYTNPKSLYPEAEFGEYQG” is -0.0642. Turning to “HMSASTGTVSYKSGATTVWNSPSWHQVKRYVTFGDTVQLLGKTVDQNGATWYKVGDNQWIPELYLNVAG”, the “soluble fraction (log2)” value is -0.725.

On to “HMSATEPVHFDPNKSPEDMTVEELQAGILAKMANNGPVSDQMKKTVNENIWHDSLVNWLKSF”, for which the “soluble fraction (log2)” value is -0.164.

On to “HMSATPQRMSIINELDSARKNLSAYDLRDSLKDKGHSFNISTIYRVLSFWIDVGVVHKMDSSNTYL”, for which the “soluble fraction (log2)” value was -0.111. Then “HMSATVLVHVLGEVRKPGVVSLPEGSRVQDAITAAGGLTSRAKPGDLNLAARVSDGAQLVIGRSGSQVRTT”, with -0.306; and “HMSAVVAPLPGLIQNILVKVGDTVHAGQHVLTMEAMKMENEIQTNRDGIIKDIKVRIGDSVNEGDTLIIL”, with 0.0725; and “HMSDAGAIEPTIKEILASNPKAVEEYLAGNIKNINALIGQSMKALHGKADPQTVRNLLAKLLDEM”, with -0.252. For “HMSDAIQLEQKIGLEAIEWYLALSEQTDDKLLYQQWQSWLAADPQHQLAWSRIEQVNHGLNTL”, the “soluble fraction (log2)” value was -1.03.

As for “HMSDAVQLGLRLRAARERRGLSQQAVADALGLPRTAVTNMESGNRAVSTLELTKLAALYGQSTAFFLSP”, the “soluble fraction (log2)” value was -1.19. The figure for “HMSDDVELLGRLSDREVSVLQYLSQGYSNKQISEQMFISNKTVSTYKARLLLKLNAGSLVDLIEFAKRNTL” is -1.35; for “HMSDEINYVIQINGKNRAEAEFGANLDKESIENLALEHERIKELLNGLTVRKIIVVPKKLVNIVA” it is -0.556. Then “HMSDESALLELVKQIIADNPKAVEEIRAGKEKAMGFLIGQAMKASRGSANPQIISRLVREQLG”, with 0.57; and “HMSDFDPTLILDLIKGSGEALTKREIARALGIKGGDKRIELKSHLKSMEAEGVIVKQAGGAYSVP”, with -0.132; and “HMSDFSNLNLLELNSSELDLLLRRASSQGLTQMDLLKMARSQGLSEADLIKVKGKIDTSESIKR”, with 0.076.

“HMSDFSSNLRRLRKRAGLSQDALAEKLSVARQTVSSWERGNSYPDLDMLVRISDALATDPNELLYPN”: the “soluble fraction (log2)” value was -0.167.

For the sequence “HMSDGDFLQKIAEEILAQFPDKVKEYQKGKKGLIGFFMGELMKRSKGKADPKVATRILEEILSEKNGSS”, the “soluble fraction (log2)” value is -0.0745. Then “HMSDGTVYGSDGVIKVNLPQSGMLRIYATDGTTLVNRWQAAGIDTISMPRGLYIVRFDNQVWKVVV”, with -1.65. Then “HMSDHSSLAGKEGVAVTPLRPAGTAEIDGKRMDVVTMGDYIKAGDHIKVVKVEGNRIIVAKN”, with 0.0173; and “HMSDHYEVLGVDRNATDDQIKKAYRRLARELHPDVNDAPESQEKFKLVTHAYEVLSDPDERRKYDMG”, with -0.0229; and “HMSDIYSLFERELGRTLSSYEYEIIGKWIEKGVSEDTIKRALKEAILNGVTNFKYIDKIIYDWSKN”, with -0.622. The figure for “HMSDLFKYSPYKTLTEEQYKITYQIIERLKTDLSNGIPRISIIDGGAGTGKSILGIFLLKLLVDAQN” is 0.353; for “HMSDNLSASERKALSHMEGMESVRSSEVADLLGMSQRGAQKLLNRLVDKGLASSFGANRNRRYSVE” it is 0.144. “HMSDNLTIVRAVYSGLSQRQAAATYHVSRNTVSLLLRHARNRGWLTLEDLAQLDNAAFSKSL”: the “soluble fraction (log2)” value was -4.32. The figure for “HMSDPFSPTTTLKNRAKSVLSVDSFEDFKLFIKKMWQEKKEGVYQNPNVETWKDWDNISVKDAKILISLI” is -1.45.

For “HMSDPHEELMSRIARDLSIPLTRVVAEMNTIISKEFGGHIRPEGAVVILAKRSGVEFSDLLPALRENILK”, the “soluble fraction (log2)” value was -1.92.

(Values after the domain aggregation screens of Martell et al. (2025).)
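Also: 20 min heating vs room temperature control held 20 min.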
